# B1: Munc13C K1494D/K1495D/K1500D (trimer 3xD) (domain or fragment)
# chain: not shown
# Target: the molecule itself
# Experiment: cryo-electron tomography
protein,measurement,value
B1,stoichiometry N,6

# — publication PMC12325603 (Nature Communications, 2025)
